Assay results reported in patent US20230265421.

Tested on: T1, dFrCas9 (Faecalibaculum rodentium)
T1 sequence: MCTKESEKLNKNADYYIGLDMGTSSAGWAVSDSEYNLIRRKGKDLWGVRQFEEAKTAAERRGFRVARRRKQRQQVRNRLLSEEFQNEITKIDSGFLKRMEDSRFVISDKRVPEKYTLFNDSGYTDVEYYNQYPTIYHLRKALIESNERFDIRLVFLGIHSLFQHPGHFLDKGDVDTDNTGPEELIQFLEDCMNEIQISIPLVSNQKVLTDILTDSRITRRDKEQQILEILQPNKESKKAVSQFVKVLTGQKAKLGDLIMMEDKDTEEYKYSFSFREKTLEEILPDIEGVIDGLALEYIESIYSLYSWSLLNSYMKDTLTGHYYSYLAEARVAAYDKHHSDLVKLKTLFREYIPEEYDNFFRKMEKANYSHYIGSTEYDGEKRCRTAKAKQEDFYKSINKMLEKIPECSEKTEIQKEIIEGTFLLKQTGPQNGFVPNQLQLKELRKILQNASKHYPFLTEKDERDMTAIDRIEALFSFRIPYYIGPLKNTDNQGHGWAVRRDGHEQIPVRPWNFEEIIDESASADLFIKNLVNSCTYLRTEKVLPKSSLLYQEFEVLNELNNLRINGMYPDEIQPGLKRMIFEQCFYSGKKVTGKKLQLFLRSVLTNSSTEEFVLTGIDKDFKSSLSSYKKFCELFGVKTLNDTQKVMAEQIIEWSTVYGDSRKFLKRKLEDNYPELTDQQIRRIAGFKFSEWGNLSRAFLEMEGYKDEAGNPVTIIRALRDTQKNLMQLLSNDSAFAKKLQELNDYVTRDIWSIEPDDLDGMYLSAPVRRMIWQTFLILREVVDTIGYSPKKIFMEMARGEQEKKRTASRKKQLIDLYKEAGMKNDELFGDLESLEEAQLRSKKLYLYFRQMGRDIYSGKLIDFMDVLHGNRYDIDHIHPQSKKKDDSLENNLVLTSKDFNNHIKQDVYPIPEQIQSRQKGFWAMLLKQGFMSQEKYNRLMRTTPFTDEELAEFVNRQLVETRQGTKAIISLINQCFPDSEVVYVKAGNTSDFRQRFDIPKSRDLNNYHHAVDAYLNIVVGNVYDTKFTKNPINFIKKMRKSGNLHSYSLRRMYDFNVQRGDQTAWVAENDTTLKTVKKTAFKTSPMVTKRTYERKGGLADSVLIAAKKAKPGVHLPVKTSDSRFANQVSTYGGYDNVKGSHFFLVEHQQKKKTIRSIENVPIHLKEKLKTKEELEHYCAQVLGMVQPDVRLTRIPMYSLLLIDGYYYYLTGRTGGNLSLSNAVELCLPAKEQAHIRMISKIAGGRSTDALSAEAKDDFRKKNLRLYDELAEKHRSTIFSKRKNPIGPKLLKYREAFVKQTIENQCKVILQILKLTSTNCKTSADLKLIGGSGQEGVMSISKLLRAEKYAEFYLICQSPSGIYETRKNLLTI
Assay: cell_activity
Conditions: CRISPRi by binding TATA-box; PAM NNTA

Q: How did the activity (% decrease of expression) turn out when ABCA1 TATA-box sgRNA ; ABCA1 TATA-box was run?
A: 61.7
